Data published in patent publication US8778880.

What was measured:
[1] = molecular target: human growth hormone receptor on IM-9 cells (human) (UniProt P10912); test: cell-based or functional assay
[2] = molecular target: T1, rat GHR (L43R) on BAF3 cells (clone 2E2-2B12-F4) (rat) (UniProt P16310); test: cell-based or functional assay
T1 sequence (looked up): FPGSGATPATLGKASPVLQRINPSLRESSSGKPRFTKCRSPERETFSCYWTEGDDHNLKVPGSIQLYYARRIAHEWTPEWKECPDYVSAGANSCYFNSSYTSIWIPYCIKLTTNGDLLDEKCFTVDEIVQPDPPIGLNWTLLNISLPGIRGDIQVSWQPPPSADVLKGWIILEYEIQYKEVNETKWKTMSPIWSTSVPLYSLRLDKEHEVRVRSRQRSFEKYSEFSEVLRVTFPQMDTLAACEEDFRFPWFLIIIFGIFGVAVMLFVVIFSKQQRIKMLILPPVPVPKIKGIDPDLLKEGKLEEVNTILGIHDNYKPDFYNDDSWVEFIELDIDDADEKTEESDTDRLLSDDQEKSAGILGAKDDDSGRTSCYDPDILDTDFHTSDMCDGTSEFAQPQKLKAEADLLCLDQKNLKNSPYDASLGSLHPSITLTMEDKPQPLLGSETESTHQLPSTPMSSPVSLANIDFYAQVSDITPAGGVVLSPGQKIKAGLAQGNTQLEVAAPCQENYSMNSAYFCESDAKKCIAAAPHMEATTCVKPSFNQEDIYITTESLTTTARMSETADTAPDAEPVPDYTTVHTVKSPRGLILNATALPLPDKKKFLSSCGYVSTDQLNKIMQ

Chain of UniProt P10912 (P10912 19-638): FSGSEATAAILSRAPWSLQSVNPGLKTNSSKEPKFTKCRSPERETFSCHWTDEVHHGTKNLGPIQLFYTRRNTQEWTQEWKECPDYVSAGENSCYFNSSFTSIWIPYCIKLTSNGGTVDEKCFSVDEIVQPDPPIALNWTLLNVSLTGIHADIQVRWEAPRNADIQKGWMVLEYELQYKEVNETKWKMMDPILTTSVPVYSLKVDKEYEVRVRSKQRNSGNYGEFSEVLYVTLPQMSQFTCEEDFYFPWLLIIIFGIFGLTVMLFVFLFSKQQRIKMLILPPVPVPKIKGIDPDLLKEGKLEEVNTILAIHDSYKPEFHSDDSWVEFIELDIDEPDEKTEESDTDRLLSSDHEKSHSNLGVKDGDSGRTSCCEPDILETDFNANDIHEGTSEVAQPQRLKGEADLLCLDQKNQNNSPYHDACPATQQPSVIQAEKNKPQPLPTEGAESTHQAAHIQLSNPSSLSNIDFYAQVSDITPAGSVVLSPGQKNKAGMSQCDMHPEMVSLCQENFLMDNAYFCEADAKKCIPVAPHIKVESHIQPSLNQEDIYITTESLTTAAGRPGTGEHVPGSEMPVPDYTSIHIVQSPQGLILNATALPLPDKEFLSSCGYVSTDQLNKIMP

Row | Substance | pSTAT5 EC50 (IM-9) (nM (head); WHO hGH expressed as unity) [1] | Proliferation EC50 (BrdU, rat GHR (L43R) BAF3 cells) (nM (head); WHO hGH expressed as unity) [2]
1 | hGH R134pAF-20KPEG (from UniProt P01241 27-217) (ligand) | 5.3 | –
2 | hGH Y35pAF-40KPEG (from UniProt P01241 27-217) (ligand) | 53.3 | 24
3 | hGH K145pAF-30KPEG (from UniProt P01241 27-217) (ligand) | 20.6 | 5.3
4 | hGH G131pAF-30KPEG (from UniProt P01241 27-217) (ligand) | 23.8 | 4.6
5 | hGH Y143pAF-30KPEG (from UniProt P01241 27-217) (ligand) | 12.3 | 6.6
